Experimental data as given in paper PMC5986765 (Cell Discovery, 2018).
Bridge positions count the residues as written; N and C are the ends. Ends that are not written are not given here.

T1: chicken ASIC1a (cASIC1a) (Gallus gallus, UniProt Q1XA76)
T1 construct: expressed in transfected cells; host or cells: CHO cells, transient transfection, pcDNA3.1/Zeo(+)
T1 sequence (Q1XA76 1-527): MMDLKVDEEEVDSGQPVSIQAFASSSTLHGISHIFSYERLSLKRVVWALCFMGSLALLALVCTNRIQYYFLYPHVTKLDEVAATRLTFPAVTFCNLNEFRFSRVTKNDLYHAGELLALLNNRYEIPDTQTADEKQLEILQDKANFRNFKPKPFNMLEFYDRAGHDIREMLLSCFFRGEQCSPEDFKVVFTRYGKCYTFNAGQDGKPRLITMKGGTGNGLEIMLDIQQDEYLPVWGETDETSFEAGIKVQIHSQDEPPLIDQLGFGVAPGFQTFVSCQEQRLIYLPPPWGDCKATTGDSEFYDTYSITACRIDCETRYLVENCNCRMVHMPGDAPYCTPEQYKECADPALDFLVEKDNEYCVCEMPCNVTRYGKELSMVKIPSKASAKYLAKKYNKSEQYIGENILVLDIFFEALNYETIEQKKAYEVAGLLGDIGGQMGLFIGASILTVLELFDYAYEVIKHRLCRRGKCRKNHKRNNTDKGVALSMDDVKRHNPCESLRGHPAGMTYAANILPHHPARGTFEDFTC

T2: human ASIC1a (hASIC1a) (Homo sapiens, UniProt P78348)
T2 construct: expressed in transfected cells; host or cells: CHO cells
T2 sequence (P78348 1-528): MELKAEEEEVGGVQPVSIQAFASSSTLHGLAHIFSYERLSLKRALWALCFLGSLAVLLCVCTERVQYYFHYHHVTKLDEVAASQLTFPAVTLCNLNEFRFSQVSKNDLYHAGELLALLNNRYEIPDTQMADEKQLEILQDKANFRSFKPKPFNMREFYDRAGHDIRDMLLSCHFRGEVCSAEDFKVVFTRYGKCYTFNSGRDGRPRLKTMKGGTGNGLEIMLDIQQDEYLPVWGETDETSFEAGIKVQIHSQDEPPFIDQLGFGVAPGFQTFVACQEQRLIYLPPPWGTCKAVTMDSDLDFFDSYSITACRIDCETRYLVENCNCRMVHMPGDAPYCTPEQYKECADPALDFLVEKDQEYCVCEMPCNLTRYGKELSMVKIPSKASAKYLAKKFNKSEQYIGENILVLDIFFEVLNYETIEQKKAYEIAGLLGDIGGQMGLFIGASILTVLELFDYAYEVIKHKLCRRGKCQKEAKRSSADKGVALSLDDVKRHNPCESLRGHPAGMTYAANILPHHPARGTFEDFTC

B1: truncated chicken ASIC1a (residues 14-463), cASIC1a^ΔNC (domain or fragment)
chain: GQPVSIQAFASSSTLHGISHIFSYERLSLKRVVWALCFMGSLALLALVCTNRIQYYFLYPHVTKLDEVAATRLTFPAVTFCNLNEFRFSRVTKNDLYHAGELLALLNNRYEIPDTQTADEKQLEILQDKANFRNFKPKPFNMLEFYDRAGHDIREMLLSCFFRGEQCSPEDFKVVFTRYGKCYTFNAGQDGKPRLITMKGGTGNGLEIMLDIQQDEYLPVWGETDETSFEAGIKVQIHSQDEPPLIDQLGFGVAPGFQTFVSCQEQRLIYLPPPWGDCKATTGDSEFYDTYSITACRIDCETRYLVENCNCRMVHMPGDAPYCTPEQYKECADPALDFLVEKDNEYCVCEMPCNVTRYGKELSMVKIPSKASAKYLAKKYNKSEQYIGENILVLDIFFEALNYETIEQKKAYEVAGLLGDIGGQMGLFIGASILTVLELFDYAYEVIKHR
notes: not shown: His8, N-terminal, cleaved; EGFP, N-terminal, cleaved
B2: mambalgin-1 (peptide)
chain: LKCYQHGKVVTCHRDMKFCYHNTGMPFRNLKLILQGCSSSCSETENNKCCSTDRCNK
notes: also called synthetic mambalgin-1; wild-type mambalgin-1

Key:
chicken ASIC1a (cASIC1a) = target: T1, chicken ASIC1a (cASIC1a); test: whole-cell patch clamp in CHO cells, inhibition of chicken ASIC1a; assay type: cell-based; conditions: for effect of mambalgin-1 point mutants on wild-type cASIC1a: 500 nM, means ± S.E., t-test versus WT, n = 4–13, bar graph Fig. 3e, values not given
Text: (§1) Fig. 1 Chemical synthesis and bioactivity analysis of mambalgin-1. a Synthetic route of mambalgin-1 and its mutants. b Synthetic mambalgin-1 inhibits recombinant human and chicken ASIC1a (hASIC1a and cASIC1a) channels in CHO cells. After two stable records of acid currents that were elicited by a pH drop from 7.4 to 6.0 for 4 s, synthetic mambalgin-1 was applied at pH 7.4 for 30 s followed by another application during a 4spH drop to 6.0. c Concentration–response curve showing the inhibition of hASIC1a and cASIC1a channels expressed in CHO cells (n = 3–14) by synthetic wild-type mambalgin-1
The coding sequence for wild-type cASIC1a was sub-cloned into the pcDNA3.1/Zeo( + ) vector. All site-directed mutations were generated with overlap PCR and inserted into pcDNA3.1/Zeo(+). The mutants were sequenced to verify that no unwanted mutations had been introduced. Chinese hamster ovary (CHO) cells were cultured in DMEM/F12 medium (Gibco) supplemented with 10% fetal bovine serum (FBS), 100 U/mL penicillin, and 100 U/mL streptomycin at 37 °C in a 5% CO2 incubator. The CHO cells were transferred to 24-well plates for transfection. When the CHO cells reached 90% confluence, they were transfected with 0.6 μg of plasmid encoding EGFP and 0.8 μg of plasmid encoding wild-type or mutant cASIC1a using Lipofectamine 2000 (Invitrogen, USA). After incubation for 5 h, the cells were transferred to poly-L-lysine (Sigma)-coated slides for culture for another 24–48 h in fresh medium. They were then used for the electrophysiological analysis.
For the whole-cell recordings, the bath solution contained 150 mM NaCl, 4 mM KCl, 2 mM CaCl2, 1 mM MgCl2, and 10 mM HEPES (pH 7.4, ~308 mOsm). For acidic solution below pH 6.0, HEPES was replaced by 10 mM MES to buffer solutions. The electrodes were pulled from thick-walled borosilicate glass capillaries with filaments (1.5 mm diameter; Sutter Instruments) on a four-stage puller (P-1000; Sutter, USA) and had resistances of 2–5 MΩ when filled with intracellular solution containing 140 mM KCl, 10 mM NaCl, 5 mM EGTA, 10 mM HEPES, (pH 7.4, ~297 mOsm). All chemicals were obtained from Sigma. The experiments were performed at room temperature with an EPC-10 amplifier (HEKA Electronic) with the data acquisition software PatchMaster. Membrane potential was held at −70 mV in all experiments. Acid-induced currents were recorded by rapidly exchanging local solution from pH 7.4 to acidic pH through a Y-tube perfusion system. Toxins were applied 30 s before the pH decreased and persisted during low pH application. Channels were activated by acid perfusion at least every 2 min to allow for a complete recovery of the channels from desensitization. Recordings in which access resistance or capacitance changed by 10% during the experiment were excluded from data analysis. Mambalgin-1 was added when the currents were stable.
(§2) The data were analyzed with Clampfit and SigmaPlot. The dose–response curves used to determine the IC50 values were fitted using the Hill equation: y = 1 + (Imax−1)/(1 + (IC50/x)^h), where y represents the normalized current, Imax represents the control current of ASIC1 detected in each set of experiments; x is the toxin concentration, h is the Hill coefficient, and IC50 is the half-maximal concentration. The results are presented as the means ± standard errors (SE), and n is the number of experiments.

mice = conditions: cited from earlier work
Text: Mambalgin-1, a toxin isolated from black mamba venom, is a disulfide-rich polypeptide consisting of 57 amino acids and belongs to the family of three-finger toxins[31],[38].

human ASIC1a (hASIC1a) = target: T2, human ASIC1a (hASIC1a); test: whole-cell patch clamp in CHO cells, inhibition of human ASIC1a; assay type: cell-based; conditions: synthetic mambalgin-1, whole-cell recording at −70 mV, pH drop from 7.4 to 6.0 for 4 s, toxin applied 30 s before at pH 7.4 and during acid, room temperature, Hill fit, mean ± SE, n = 3–14
Text: as §1
The coding sequence for wild-type cASIC1a was sub-cloned into the pcDNA3.1/Zeo( + ) vector. […]
For the whole-cell recordings, the bath solution contained 150 mM NaCl, 4 mM KCl, 2 mM CaCl2, 1 mM MgCl2, and 10 mM HEPES (pH 7.4, ~308 mOsm). […] Acid-induced currents were recorded by rapidly exchanging local solution from pH 7.4 to acidic pH through a Y-tube perfusion system. […]
as §2, with “The results are presented as the means ± standard errors (SE), and n is the number of experiments.” left out

ASIC1a = conditions: cited from earlier work
Text: Mambalgin-1 can bind to and stabilize ASICs in a physiologically relevant closed-channel conformation, but the underlying binding and inhibition mechanism remains elusive. […] Previously, a docked structure of the cASIC1a–mambalgin-1 complex was reported[23],[24], following the crystal structure of the cASIC1a–PcTx1 complex. Mambalgin-1 was predicted to insert into the acidic pocket (also known as the acid-sensing pocket) inside t ...

[1] = target: the molecule itself; test: cryo-EM structure; […] 5.7 Å overall map, 5.4 Å map of the extracellular part; poly-alanine model by rigid-body fitting of crystal structures
[2] = target: B1; test: cryo-EM structure; conditions: both partners purified

## F27A: mutation of mambalgin-1 in the Finger II region (LKCYQHGKVVTCHRDMKFCYHNTGMPARNLKLILQGCSSSCSETENNKCCSTDRCNK; disulfide (positions not given here); ends not checked; UniProt P0DKR6 22-78, looked up, variant F27A)
Chicken ASIC1a (cASIC1a)
  effect of mambalgin-1 point mutants on wild-type cASIC1a: perturbed the inhibitory effects of the cASIC1a channel

## H6A: mutation of mambalgin-1 in the Finger I region (LKCYQAGKVVTCHRDMKFCYHNTGMPFRNLKLILQGCSSSCSETENNKCCSTDRCNK; disulfide (positions not given here); ends not checked; UniProt P0DKR6 22-78, looked up, variant H6A)
Chicken ASIC1a (cASIC1a)
  effect of mambalgin-1 point mutants on wild-type cASIC1a: perturbed the inhibitory effects of the cASIC1a channel

## K8A: mutation of mambalgin-1 in the Finger I region (LKCYQHGAVVTCHRDMKFCYHNTGMPFRNLKLILQGCSSSCSETENNKCCSTDRCNK; disulfide (positions not given here); ends not checked; UniProt P0DKR6 22-78, looked up, variant K8A)
Chicken ASIC1a (cASIC1a)
  effect of mambalgin-1 point mutants on wild-type cASIC1a: perturbed the inhibitory effects of the cASIC1a channel

## LKCYQHGKVVTCHRDMKFCYHNTGMPFRNLKLILQGCSSSCSETENNKCCSTDRCNK-NH2 (disulfide 3-19, 12-37, 41-49, 50-55) [mambalgin-1]
mice
  adverse side effects relative to traditional opioid drugs: fewer adverse side effects than traditional opioid drugs
Chicken ASIC1a (cASIC1a); synthetic mambalgin-1, whole-cell recording at −70 mV, pH drop from 7.4 to 6.0 for 4 s, toxin applied 30 s before at pH 7.4 and during acid, room temperature, Hill fit, mean ± SE, n = 3–14
  IC50: 124 ± 20.3 nM
Human ASIC1a (hASIC1a)
  IC50: 197 ± 18.7 nM

## PcTx1 (EDCIPKWKGCVNRHGDCCEGLECWKRRRSFEVCVPKTPKT; ends and bridges not checked; cysteine pairing not given here; UniProt P60514 1-40, looked up)
ASIC1a
  channel states bound, PcTx1: binds tightly to the open and desensitized states of ASIC1a

## Q5A: mutation of mambalgin-1 in the Finger I region (LKCYAHGKVVTCHRDMKFCYHNTGMPFRNLKLILQGCSSSCSETENNKCCSTDRCNK; disulfide (positions not given here); ends not checked; UniProt P0DKR6 22-78, looked up, variant Q5A)
Chicken ASIC1a (cASIC1a)
  effect of mambalgin-1 point mutants on wild-type cASIC1a: perturbed the inhibitory effects of the cASIC1a channel

## R28A: mutation of mambalgin-1 in the Finger II region (LKCYQHGKVVTCHRDMKFCYHNTGMPFANLKLILQGCSSSCSETENNKCCSTDRCNK; disulfide (positions not given here); ends not checked; UniProt P0DKR6 22-78, looked up, variant R28A)
Chicken ASIC1a (cASIC1a)
  effect of mambalgin-1 point mutants on wild-type cASIC1a: perturbed the inhibitory effects of the cASIC1a channel

## B1
[1]
  stoichiometry N: 3

## B2
[2]
  stoichiometry N: 3 mambalgin-1 per cASIC1a trimer
